Reference: article PMC6283417, “The structure of the RbBP5 β-propeller domain reveals a surface with potential nucleic acid binding sites”

Tests used:
[1] = molecular target: T1, RbBP5 beta-propeller (1-340) wild type (mouse, UniProt Q8BX09 1-340); test: NMR 1H-15N HSQC titration; marginally stronger than 7N-RNA pool; Anisotropy: 50 mM Tris pH 7.4, 150 mM NaCl, 0.5 mM DTT, 20 C; NMR conditions not in the material; details: protein: recombinant; tags: 6xHis-SUMO removed by 3C protease
[2] = molecular target: T1, RbBP5 beta-propeller (1-340) wild type; test: fluorescence anisotropy; Anisotropy: 50 mM Tris pH 7.4, 150 mM NaCl, 0.5 mM DTT, 20 C; NMR conditions not in the material; details: protein: recombinant; tags: 6xHis-SUMO removed by 3C protease; label: 6-FAM (3')

T1 sequence (Q8BX09 1-340): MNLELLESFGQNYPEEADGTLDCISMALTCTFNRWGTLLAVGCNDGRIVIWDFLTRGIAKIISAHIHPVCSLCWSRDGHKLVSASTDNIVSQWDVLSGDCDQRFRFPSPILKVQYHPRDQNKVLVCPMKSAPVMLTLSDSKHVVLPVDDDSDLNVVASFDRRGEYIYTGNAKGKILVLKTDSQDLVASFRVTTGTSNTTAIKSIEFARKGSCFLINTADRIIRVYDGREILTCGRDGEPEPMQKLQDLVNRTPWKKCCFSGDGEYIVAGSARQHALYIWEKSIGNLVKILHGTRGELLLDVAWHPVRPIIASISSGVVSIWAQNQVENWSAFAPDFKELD

Question: Does UAGGUUC (ssRNA) [SIA optimized RNA 7-mer] bind [1]?
Answer: Result: binds

Question: GCAUAGGUUCGAUC (ssRNA) [14-mer ssRNA-6FAM] was tested. Which Kd [2] did it give?
Answer: The Kd was 22.5 ± 3.2 µM.
